According to the supplement of paper PMC11196671:

How the values were obtained:
[1] = MHET released, HPLC; higher = more MHET released; extreme values may be limits of the assay; settings: 24 h
Procedure: (§1)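 Purified PET hydrolases, 2.5 ug enzyme on 3.5 mg amorphous PET film (aFilm) or crystalline PET powder (cryPow) in 0.5 mL of 50 mM buffer (NaCitrate pH 4.5/5.5, NaPhosphate 6.5/7.5, glycine 8.5/9.5) at 60 or 70 C with shaking for 24 h. Total aromatic product by UV-Vis (260/280 nm, blank-subtracted, normalised per mg enzyme) and individual TPA, MHET, BHET concentrations by UHPLC-DAD at 240 nm; duplicate reactions.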

[2] = terephthalic acid (TPA) released, HPLC; higher = more TPA released; extreme values may be limits of the assay; settings: 24 h
Procedure: as §1

[3] = PET hydrolysis product formed (TPA+MHET+BHET, UV-Vis) per mg enzyme (mmol/mg enzyme); higher = more PET depolymerisation activity; extreme values may be limits of the assay; settings: 2 h
Procedure: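 Purified PET hydrolases (His-SUMO cleaved, E. coli C41(DE3) small-scale expression), 2.5 ug enzyme on 3.5 mg amorphous PET film (aFilm) or crystalline PET powder (cryPow) in 0.5 mL of 50 mM buffer (NaCitrate pH 4.5/5.5, NaPhosphate 6.5/7.5, glycine 8.5/9.5) at 60 or 70 C with shaking for 2 h. Soluble aromatic products (TPA+MHET+BHET) were quantified by UV-Vis at 260/280 nm, blank-subtracted against the no-enzyme control, and normalised per mg enzyme; duplicate reactions.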

[4] = as above; settings: 24 h
Procedure: as §1

SNPYQRGPNPTRSALTADGPFSVATYTVSRLSVSGFGGGVIYYPTGTSLTFGGIAMSPGYTADASSLAWLGRRLASHGFVVLVINTNSRFDGPDSRASQLSAALNYLRTSSPSAVRARLDANRLAVAGHSMGGGGTLRIAEQNPSLKAAVPLTPWHTDKTFNTSVPVLIVGAEADTVAPVSQHAIPFYQNLPSTTPKVYVELCNASHIAPNSNNAAISVYTISWMKLWVDNDTRYRQFLCNVNDPALCDFRTNNRHCQ [LCC-ICCG]
Settings	MHET released, [1] [mM]	PET hydrolysis product formed, [3]	PET hydrolysis product formed, [4]	terephthalic acid, [2] [mM]
PET substrate: aFilm, 60 °C, pH 4.5	0.00708	0	0.00176	0.0137
PET substrate: aFilm, 60 °C, pH 5.5	0.284	0.0182	0.126	0.309
PET substrate: aFilm, 60 °C, pH 6.5	0.773	0.0377	0.327	0.78
PET substrate: aFilm, 60 °C, pH 7.5	3.92	0.0795	1.42	3.41
PET substrate: aFilm, 60 °C, pH 8.5	0.271	0.0461	0.142	0.472
PET substrate: aFilm, 60 °C, pH 9.5	2.19	0.0968	0.885	2.3
PET substrate: aFilm, 70 °C, pH 4.5	0	0	0	0
PET substrate: aFilm, 70 °C, pH 5.5	0.246	0.0371	0.109	0.25
PET substrate: aFilm, 70 °C, pH 6.5	0.356	0.0873	0.165	0.362
PET substrate: aFilm, 70 °C, pH 7.5	4.35	0.226	1.92	2.48
PET substrate: aFilm, 70 °C, pH 8.5	0.221	0.0682	0.107	0.287
PET substrate: aFilm, 70 °C, pH 9.5	1.87	0.252	0.901	1.72
PET substrate: cryPow, 60 °C, pH 4.5	0.0148	0	0	0.0129
PET substrate: cryPow, 60 °C, pH 5.5	0.203	0.0406	0.0652	0.0979
PET substrate: cryPow, 60 °C, pH 6.5	0.27	0.045	0.09	0.113
PET substrate: cryPow, 60 °C, pH 7.5	0.507	0.0768	0.184	0.308
PET substrate: cryPow, 60 °C, pH 8.5	0.198	0.0339	0.0728	0.121
PET substrate: cryPow, 60 °C, pH 9.5	0.165	0.0379	0.125	0.516
PET substrate: cryPow, 70 °C, pH 4.5	0	0	0	0
PET substrate: cryPow, 70 °C, pH 5.5	0.1	0.0205	0.031	0.0559
PET substrate: cryPow, 70 °C, pH 6.5	0.208	0.0349	0.0781	0.0977
PET substrate: cryPow, 70 °C, pH 7.5	0.433	0.0598	0.2	0.409
PET substrate: cryPow, 70 °C, pH 8.5	0.173	0.0285	0.0667	0.111
PET substrate: cryPow, 70 °C, pH 9.5	0.1	0.0357	0.131	0.682

SNPYQRGPNPTRSALTADGPFSVATYTVSRLSVSGFGGGVIYYPTGTSLTFGGIAMSPGYTADASSLAWLGRRLASHGFVVLVINTNSRFDGPDSRASQLSAALNYLRTSSPSAVRARLDANRLAVAGHSMGGGGTLRIAEQNPSLKAAVPLTPWHTDKTFNTSVPVLIVGAEADTVAPVSQYAIPFYQNLPSTTPKVYVELCNASHIAPNSDNAAISVYTISWMKLWVDNDTRYRQFLCNVNDPALCDFRTNNRHCQ [LCC-A2]
Settings	MHET released, [1] [mM]	PET hydrolysis product formed, [3]	PET hydrolysis product formed, [4]	terephthalic acid, [2] [mM]
PET substrate: aFilm, 60 °C, pH 4.5	0.107	0	0.0551	0.195
PET substrate: aFilm, 60 °C, pH 5.5	0.735	0.031	0.331	0.792
PET substrate: aFilm, 60 °C, pH 6.5	1.23	0.061	0.484	1.34
PET substrate: aFilm, 60 °C, pH 7.5	6.36	0.144	2.22	5.52
PET substrate: aFilm, 60 °C, pH 8.5	0.322	0.0742	0.195	0.776
PET substrate: aFilm, 60 °C, pH 9.5	2.64	0.154	0.963	2.661
PET substrate: aFilm, 70 °C, pH 4.5	0	0	0	0.0095
PET substrate: aFilm, 70 °C, pH 5.5	0.429	0.0749	0.181	0.455
PET substrate: aFilm, 70 °C, pH 6.5	0.862	0.138	0.361	0.83
PET substrate: aFilm, 70 °C, pH 7.5	8.82	0.418	2.87	5.42
PET substrate: aFilm, 70 °C, pH 8.5	0.253	0.09	0.171	0.643
PET substrate: aFilm, 70 °C, pH 9.5	2.25	0.423	0.934	2.9
PET substrate: cryPow, 60 °C, pH 4.5	0.1017	0.0208	0.0357	0.0633
PET substrate: cryPow, 60 °C, pH 5.5	0.24	0.0469	0.0766	0.132
PET substrate: cryPow, 60 °C, pH 6.5	0.476	0.062	0.152	0.232
PET substrate: cryPow, 60 °C, pH 7.5	0.733	0.127	0.261	0.39
PET substrate: cryPow, 60 °C, pH 8.5	0.261	0.0645	0.0909	0.174
PET substrate: cryPow, 60 °C, pH 9.5	0.281	0.0424	0.195	0.789
PET substrate: cryPow, 70 °C, pH 4.5	0.0080455	0	0	0.0184
PET substrate: cryPow, 70 °C, pH 5.5	0.168	0.0282	0.0541	0.0932
PET substrate: cryPow, 70 °C, pH 6.5	0.421	0.0641	0.139	0.209
PET substrate: cryPow, 70 °C, pH 7.5	0.748	0.107	0.334	0.639
PET substrate: cryPow, 70 °C, pH 8.5	0.293	0.0569	0.0995	0.157
PET substrate: cryPow, 70 °C, pH 9.5	0.189	0.0859	0.205	0.987
